Data on three molecules can be found in article PMC3568533.

Experiment [1] deals with CYP3A4 K96A (N-terminus truncated) (human) (UniProt P08684).
In experiment [2] the target is CYP3A4 K421A (N-terminus truncated) (human) (UniProt P08684).
Experiment [3] concerns the target CYP3A4 wild-type (N-terminus truncated) (human) (UniProt P08684).
Experiment [4] deals with CYP3A4 K96A (N-terminus truncated) (human) (UniProt P08684). Briefly: spectral titration.
Experiment [5] addresses CYP3A4 K421A (N-terminus truncated) (human) (UniProt P08684). The experiment is described as follows: spectral titration.
Experiment [6] has as its target CYP3A4 wild-type (N-terminus truncated) (human) (UniProt P08684). The experiment is described as follows: spectral titration.
Experiment [7] concerns the target CYP3A4 K96A (N-terminus truncated) (human) (UniProt P08684). The source holds these as a separate data set.
The target of experiment [8] is CYP3A4 K421A (N-terminus truncated) (human) (UniProt P08684). The source holds these as a separate data set.
For experiment [9], the target named is CYP3A4 wild-type (N-terminus truncated) (human) (UniProt P08684). This is another data set of the same source.

Consider “Histidine-tagged recombinant human cyt b5 (commercial holo b5) (from UniProt P00167 1-134) (natural protein)”, for which the Ratio of Vmax + b5/− b5, testosterone 6β-hydroxylation, CYP:CPR:cyt b5 1:2:1 came out at 1.3 in experiment [1], 2 in [2] and 1.7 in [3].

On to “reconstituted holo b5 (human cyt b5 made in-house) (from UniProt P00167 1-134) (natural protein)”, for which the values for the Kd in experiment [4], in experiment [5] and in experiment [6] were 346 nM, 287 nM and 140 nM, respectively.

B1: rat cytochrome P450 reductase (enzyme)
chain: MGDSHEDTSATMPEAVAEEVSLFSTTDMVLFSLIVGVLTYWFIFRKKKEEIPEFSKIQTTAPPVKESSFVEKMKKTGRNIIVFYGSQTGTAEEFANRLSKDAHRYGMRGMSADPEEYDLADLSSLPEIDKSLVVFCMATYGEGDPTDNAQDFYDWLQETDVDLTGVKFAVFGLGNKTYEHFNAMGKYVDQRLEQLGAQRIFELGLGDDDGNLEEDFITWREQFWPAVCEFFGVEATGEESSIRQYELVVHEDMDVAKVYTGEMGRLKSYENQKPPFDAKNPFLAAVTANRKLNQGTERHLMHLELDISDSKIRYESGDHVAVYPANDSALVNQIGEILGADLDVIMSLNNLDEESNKKHPFPCPTTYRTALTYYLDITNPPRTNVLYELAQYASEPSEQEHLHKMASSSGEGKELYLSWVVEARRHILAILQDYPSLRPPIDHLCELLPRLQARYYSIASSSKVHPNSVHICAVAVEYEAKSGRVNKGVATSWLRAKEPAGENGGRALVPMFVRKSQFRLPFKSTTPVIMVGPGTGIAPFMGFIQERAWLREQGKEVGETLLYYGCRRSDEDYLYREELARFHKDGALTQLNVAFSREQAHKVYVQHLLKRDREHLWKLIHEGGAHIYVCGDARNMAKDVQNTFYDIVAEFGPMEHTQAVDYVKKLMTKGRYSLDVWS
Regarding B1, the apparent K'm,CPR of TST 6β-hydroxylation at varying CPR concentrations in experiment [7] is 91 nM; in experiment [8] it was 70 nM; in experiment [9] it was 41 nM.
